Data: patent US20260055369A1, “METHOD FOR GENERATING CELLS OF THE T CELL LINEAGE WITH ENGINEERING BROADLY REACTIVE HUMAN NOTCH LIGAND” (H. Lee Moffitt Cancer Center and Research Institute, Inc., priority 2022, published 2026)
Like-named read-outs stand apart in the source and are kept apart here.

B1: Delta^MAX: engineered human DLL4 consensus variant with 10 mutations combining DLL4.v1 and DLL4.v2 mutations; sequence matches SEQ ID NO: 4/10 (protein)
chain: SSVFQLQLQEFINERGVLASGRPCEPGCRTFFRVCLKHFQAVVSPGPCTFGTVSTPVLGTNSFAVRDDSSGGGRNPLQLPLNFTWPGTFSLIIEAWHAPGDDLRPEALPPDALISKFAIQGSLAVGQNWLLDEQTSTLTRLRYSYRVICSDNYYGDNCSRLCKKRNDYFGHYVCQPDGNPSCLPGWTGEYCQQPICLSGCHEQNGYCSKPAECLCRPGWQGRLCNECIPHPGCRHGTCSTPWQCLCDEGWGGLYCDQDLNYCTHHSPCKNGATCRNSGPRSYTCTCRPGYTGVDCELELSECDSNPCRNGGSCKDQEDGYHCLCPPGYYGLHCEHSTLSCADSPCFNGGSCRERNQGANYACECPPNFTGSNCE
B2: WT DLL4: human wild-type Delta-like 4 (N-EGF5, residues 27-400), SEQ ID NO: 1 (protein)
chain: SGVFQLQLQEFINERGVLASGRPCEPGCRTFFRVCLKHFQAVVSPGPCTFGTVSTPVLGTNSFAVRDDSSGGGRNPLQLPFNFTWPGTFSLIIEAWHAPGDDLRPEALPPDALISKIAIQGSLAVGQNWLLDEQTSTLTRLRYSYRVICSDNYYGDNCSRLCKKRNDHFGHYVCQPDGNLSCLPGWTGEYCQQPICLSGCHEQNGYCSKPAECLCRPGWQGRLCNECIPHNGCRHGTCSTPWQCTCDEGWGGLFCDQDLNYCTHHSPCKNGATCSNSGQRSYTCTCRPGYTGVDCELELSECDSNPCRNGGSCKDQEDGYHCLCPPGYYGLHCEHSTLSCADSPCFNGGSCRERNQGANYACECPPNFTGSNCE

Experiments:
[1] = system: Notch1; assay: Notch inhibition assay with soluble antagonists and WT DLL4 coated plates (CHO-K1 N1-Gal4); format: cell-based
Notch1, sequence (P46531 19-1664 limits assumed): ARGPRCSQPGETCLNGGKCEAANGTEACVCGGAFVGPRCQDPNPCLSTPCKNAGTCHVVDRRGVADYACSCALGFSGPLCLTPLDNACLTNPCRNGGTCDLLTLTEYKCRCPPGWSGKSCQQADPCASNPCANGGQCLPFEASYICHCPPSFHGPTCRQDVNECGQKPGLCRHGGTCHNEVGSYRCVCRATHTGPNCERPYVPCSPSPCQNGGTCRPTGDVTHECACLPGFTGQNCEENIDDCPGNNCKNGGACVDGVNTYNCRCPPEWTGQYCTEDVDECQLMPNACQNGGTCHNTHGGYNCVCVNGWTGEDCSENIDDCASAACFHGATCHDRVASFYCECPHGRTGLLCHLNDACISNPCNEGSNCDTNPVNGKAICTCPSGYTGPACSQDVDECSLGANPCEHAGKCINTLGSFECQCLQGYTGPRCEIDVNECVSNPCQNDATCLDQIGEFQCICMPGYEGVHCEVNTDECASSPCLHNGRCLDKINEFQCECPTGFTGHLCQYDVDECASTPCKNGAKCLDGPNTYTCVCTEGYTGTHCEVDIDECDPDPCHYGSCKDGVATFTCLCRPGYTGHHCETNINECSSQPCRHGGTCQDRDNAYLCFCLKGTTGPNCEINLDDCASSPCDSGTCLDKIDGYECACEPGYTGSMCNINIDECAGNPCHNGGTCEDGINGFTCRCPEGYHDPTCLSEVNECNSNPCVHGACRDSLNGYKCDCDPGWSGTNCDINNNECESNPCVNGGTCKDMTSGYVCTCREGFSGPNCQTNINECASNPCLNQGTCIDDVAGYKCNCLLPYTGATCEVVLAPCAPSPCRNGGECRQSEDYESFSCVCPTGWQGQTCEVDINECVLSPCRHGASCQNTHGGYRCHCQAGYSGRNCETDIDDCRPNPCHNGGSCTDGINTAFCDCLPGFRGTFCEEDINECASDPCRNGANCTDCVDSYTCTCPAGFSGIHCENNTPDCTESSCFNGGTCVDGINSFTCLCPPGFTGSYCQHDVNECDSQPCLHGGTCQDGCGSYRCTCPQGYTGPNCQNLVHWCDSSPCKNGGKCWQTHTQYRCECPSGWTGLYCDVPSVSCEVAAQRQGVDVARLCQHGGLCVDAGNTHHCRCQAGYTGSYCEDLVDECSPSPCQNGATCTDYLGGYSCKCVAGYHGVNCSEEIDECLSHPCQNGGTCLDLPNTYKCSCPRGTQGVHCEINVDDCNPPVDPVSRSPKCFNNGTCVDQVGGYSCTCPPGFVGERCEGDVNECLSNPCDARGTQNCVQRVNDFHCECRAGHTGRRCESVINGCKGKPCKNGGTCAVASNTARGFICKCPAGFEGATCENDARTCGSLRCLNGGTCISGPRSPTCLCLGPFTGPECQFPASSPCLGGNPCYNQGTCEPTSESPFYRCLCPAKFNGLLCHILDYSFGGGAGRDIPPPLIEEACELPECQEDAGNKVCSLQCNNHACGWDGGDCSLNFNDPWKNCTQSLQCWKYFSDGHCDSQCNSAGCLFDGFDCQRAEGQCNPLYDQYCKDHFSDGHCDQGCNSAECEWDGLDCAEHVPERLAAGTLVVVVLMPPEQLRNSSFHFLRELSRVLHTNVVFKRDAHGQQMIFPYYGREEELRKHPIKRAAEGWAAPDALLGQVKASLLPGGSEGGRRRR
Notch1, sequence (P46531 1665-1756 limits assumed): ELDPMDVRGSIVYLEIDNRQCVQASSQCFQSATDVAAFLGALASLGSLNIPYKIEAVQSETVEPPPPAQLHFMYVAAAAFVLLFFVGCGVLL
Method: For CHO-K1 N1-Gal4 reporter cells, on day one, biotinylated WT DLL4 was pre-coated in 96-well plates at 50 nM following the same protocol described above. Next, CHO-K1 N1-Gal4 cells were detached with trypsin-EDTA, washed, and diluted at 200,000 cells/mL in α-MEM media. Ten-fold serial dilutions of non-biotinylated DLL4 ligands (N-EGF5) were prepared in DPBS starting at 600 nM. Next, soluble inhibitors were mixed in ratio 1:1 with CHO-K1 N1-Gal4 200,000 cells/mL stocks for 15 min at room temperature to pre-block Notch receptors. Two hundred microliters of inhibition reactions containing 20,000 reporter cells were added to WT DLL4-coated wells, and plates incubated for 24 hours at 37° C. and 5% CO2. When DAPT (gamma-secretase inhibitor, Sigma) and BB-94 (ADAM metalloprotease inhibitor, Sigma) were used, stock solutions were prepared at 100 μM in 8% DMSO. Appropriate DMSO controls were included to test Notch activation and cell viability. Final DMSO concentration in the experiment was kept below 1%. For comparisons of Delta^MAX with DAPT and BB-94, soluble inhibitors were serially diluted in DPBS using 9-folds, incubated with CHO-K1 N1-Gal4 reporter cells, and added to wells as described above. On day two, assay plates were washed with 200 μL of DPBS, CHO-K1 N1-Gal4 cells detached with trypsin-EDTA, quenched with 200 μL of α-MEM media, and Notch activation measured by flow cytometry (BD Accuri C6 Plus). The data represent the mean fluorescent intensity as percentage of Notch activation, relative to Notch activation in the absence of inhibitors±s.d. of three independent biological replicates.

[2] = system: hPSC-derived neural progenitors; assay: Differentiation of hPSC-derived neural progenitors into neurons (qPCR markers); format: cell-based, human; settings: for neural progenitor marker SOX2 expression / neuronal markers (MAPT, SNAP25, DCX, VGLUT2, TBR1) expression: soluble protein 10, 100, 1,000 nM, day 8-14, qPCR
Method: Neural differentiation of hPSCs was performed in two separate phases over 14 days. In the first phase, to differentiate hPSCs into neural progenitors for 7 days, a modification of a previously-reported method was used. However, in this study, differentiation conducted in Chemically Defined Media 2 (CDM2) media, whose composition has been described previously: 50% IMDM+GlutaMAX (Thermo Fisher)+50% F12+GlutaMAX (Thermo Fisher)+1 mg/mL polyvinyl alcohol (Sigma)+1% v/v chemically defined lipid concentrate (Thermo Fisher)+450 μM 1-thioglycerol (Sigma)+0.7 μg/mL recombinant human insulin (Sigma)+15 μg/mL human transferrin (Sigma)+1% v/v penicillin/streptomycin (Thermo Fisher). To create CDM2, polyvinyl alcohol was brought into suspension by gentle warming and magnetic stirring, and the media was sterilely filtered (through a 0.22 μm filter) prior to use. Throughout the first 7 days, differentiation media was changed every 24 hours. The second phase was to differentiate hPSC-derived neural progenitors into neurons for 7 days, from the day 8-14 interval. Neuronal differentiation media was modified from a previously-reported method^9. From day 8-14, cells were differentiated in BDNF (20 ng/ml, PeproTech), GDNF (20 ng/ml, PeproTech), Forskolin (10 μM, Tocris), 2-Phospho-L-ascorbic acid (0.2 mM, Sigma-Aldrich), with the basal media compositions varying depending on the day of differentiation. On day 8, 25% Neurobasal media+75% CDM2 media was used; on day 9, 50% Neurobasal media+50% CDM2 media was used; on day 10, 75% Neurobasal media+25% CDM2 media was used; on days 11-14, 100% Neurobasal media was used. The composition of Neurobasal media was: Neurobasal basal media (Thermo Fisher)+1% v/v N2 (Thermo Fisher)+2% v/v B27 (Thermo Fisher)+1% v/v penicillin/streptomycin (Thermo Fisher), which was filtered through a sterilizing 0.22 μM filter before use. In summary, starting on day 8 of differentiation, Neurobasal media was added in an increasing ¼th increment on a daily basis. However, to emphasize, throughout the entire day 8-14 interval, cells were exposed to the same concentration of neuronal differentiation signals (BDNF, GDNF, Forskolin and 2-Phospho-L-ascorbic acid), although different basal medias were used on different days.
To test the effect of Notch signaling on neuronal differentiation, starting on day 8, hPSC-derived neural progenitors were treated with the aforementioned neuronal differentiation signals in the presence or absence of soluble Delta^MAX (0-1,000 nM), soluble wild-type DLL4 (0-1,000 nM), or DAPT (10,000 nM, Tocris).
After differentiation of hPSCs into neurons as described above, gene expression was analyzed using RNA extraction, reverse transcription, and quantitative PCR (qPCR) as previously described. First, cells were lysed with RNeasy Lysis Buffer (Qiagen) and stored at −20° C. Cell lysates were then thawed, and RNA was extracted using the RNeasy Mini Plus Kit (Qiagen) as per the manufacturer's instructions and dissolved in H2O. Next, 300 ng of RNA was reverse transcribed into complementary DNA (cDNA) using the High-Capacity cDNA Reverse Transcription Kit (Applied Biosystems) according to the manufacturer's protocol. Total cDNA was diluted 1:20 in H2O and qPCR was performed with the SensiFAST SYBR Lo-ROX Kit (Bioline) using 10 μL qPCR reactions per well in a 384-well plate. Each individual reaction contained 5.0 μL 2× SensiFAST SYBR qPCR Master Mix+4.6 μL cDNA+0.4 μL of 10 μM primer stock (5 μM forward+5 μM reverse primers). […]

Molecule | IC50 ([1]; comparison with DAPT and BB-94, plates coated with 50 nM WT DLL4, FIG. 4B, read-out: IC50 for inhibition of Notch1 activation) [nM] | potency relative to BB-94 ([1]; ratio of IC50) | potency relative to DAPT ([1]; ratio of IC50) [fold] | IC50 ([1]; soluble ECD, plates coated with 50 nM WT DLL4, 24 hours, FIG. 4A, read-out: IC50 for inhibition of Notch1 signaling) [nM] | neuronal differentiation compared with 10 μM of DAPT ([2]; 1 μM soluble protein) | neural progenitor marker SOX2 expression [2] | neuronal markers (MAPT, SNAP25, DCX, VGLUT2, TBR1) expression [2] | reduction of reporter activity ([1]; soluble, highest concentration tested (300 nM)) [%]
B1 | 1 | 1,000 fold | 40 | 0.6 | comparable to, if not superior to | repressed | sharply increased | 
B2 |  |  |  |  |  | failed to upregulate neuronal markers or to repress neural progenitor markers | failed to upregulate neuronal markers | ~25
